System: T1, KZ-sarcin recombinant protein
T1 sequence: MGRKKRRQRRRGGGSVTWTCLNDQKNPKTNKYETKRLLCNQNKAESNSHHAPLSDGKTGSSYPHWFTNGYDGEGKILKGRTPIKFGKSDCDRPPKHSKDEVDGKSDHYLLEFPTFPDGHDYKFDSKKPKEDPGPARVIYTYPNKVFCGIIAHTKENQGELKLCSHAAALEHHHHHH

With caspase-3 (Sigma Chem. Co, U.S.A.) the “hydrolysis of KZ-sarcin by caspase-3, SDS-PAGE (room temperature, 15 minutes)” value was “KZ-sarcin recombinant protein was hydrolyzed by caspase-3 into two fragments of 12 kb and 8.5 kb”.

— patent US20170152293
